Source: the supplement of paper PMC7877785
± gives the uncertainty stated by the source.

Experiment: self-splicing fitness, log relative to wild type (ln ratio); higher = more splicing; Tetrahymena group I intron in knt gene, E. coli kanamycin selection, DiMSum; sequences stand for … in CUCUCU…GGAGGGAAAAGUUAUCAGGCAUGCACCUGGUAGCUAGUCUUUAAACCAAUAGAUUGCAUCGGUUUAAAAGGCAAGACCGUCAAAUUGCGGGAAAGGGGUCAACAGCCGUUCAGUACCAAGUCUCAGGGGAAACUUUGAGAUGGCCUUGCAAAGGGUAUGGUAAUAAGCUGACGGACAUGGUCCUAACCACGCAGCCAAGUCCUAAGUCAACAGAUCUUCUGUUGAUAUGGAUGCAGUUCACAGACUAAAUGUCGGUCGGGGAAGAUGUAUUCUUCUCAUAAGAUAUAGUCGGACCUCUCCUUAAUGGGAGCUAGCGGAUGAAGUGAUGCAACACUGGAGCCGCUGGGAACUAAUUUGUAUGCGAAAGUAUAUUGAUUAGUUUUGGAGUACUCGUGGUCG
Summary of the method: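 Pooled colonies went to amplicon sequencing on an Illumina HiSeq 2500 after six replicate transformations. The plates were LB agar with 100 μg/mL carbenicillin, 50 μM IPTG and 0.2% rhamnose, with or without 25 μg/mL kanamycin, incubated overnight at 37°C or 30°C. The E. coli BL21(DE3) library had all eight P1ex-region intron nucleotides randomised, the intron placed in the knt kanamycin-resistance gene on pET-22b(+). DiMSum fitness is the error-weighted combination of replicate fold changes, kanamycin against none, normalised to wild type.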

Sequence | self-splicing fitness (ln) (30 °C) | self-splicing fitness (ln) (37 °C)
GGUUAGCAAUAUUACGAGUG | -2.59 ± 0.35 | -1.39 ± 0.19
GGUUAGCAAUAUUACGCAAA | -1.62 ± 0.39 | -2.21 ± 0.31
GGUUAGCAAUAUUACGCCUG | -2.89 ± 0.38 | -2.7 ± 0.48
GGUUAGCAAUAUUACGCGCA | 1.25 ± 0.28 | 0.766 ± 0.34
GGUUAGCAAUAUUACGGCUU | -0.26 ± 0.082 | 1.05 ± 0.096
GGUUAGCAAUAUUACGGUAC | -1.21 ± 0.11 | -0.6 ± 0.15
GGUUAGCAAUAUUACGUCAA | -0.285 ± 0.11 | -0.43 ± 0.13
GGUUAGCAAUAUUACGUCGA | -1.43 ± 0.14 | -0.492 ± 0.14
GGUUAGCAAUAUUACGUGGC | -3.21 ± 0.34 | -1.64 ± 0.19
GGUUAGCAAUAUUACGUGUG | -2.43 ± 0.12 | -1.56 ± 0.11
GGUUAGCAAUAUUACGUUGA | -2 ± 0.2 | -1.54 ± 0.17
GUAAAGCAAUAUUACGAAAA | -1.52 ± 0.15 | 0.0796 ± 0.28
GUAAAGCAAUAUUACGAAAG | -2.91 ± 0.19 | -1.33 ± 0.19
GUAAAGCAAUAUUACGAAGG | -3.13 ± 0.13 | -1.92 ± 0.17
GUAAAGCAAUAUUACGAAUA | -1.68 ± 0.093 | -0.495 ± 0.15
GUAAAGCAAUAUUACGAGAG | -3.16 ± 0.16 | -3.37 ± 0.23
GUAAAGCAAUAUUACGAGCC | -2.51 ± 0.33 | -2.56 ± 0.26
GUAAAGCAAUAUUACGAGGU | -3.07 ± 0.13 | -1.83 ± 0.24
GUAAAGCAAUAUUACGAGUC | -2.56 ± 0.15 | -1.38 ± 0.19
GUAAAGCAAUAUUACGAUGA | -0.0816 ± 0.064 | -0.318 ± 0.068
GUAAAGCAAUAUUACGCAGA | -2.79 ± 0.22 | -0.446 ± 0.17
GUAAAGCAAUAUUACGCGAG | -0.869 ± 0.068 | -0.158 ± 0.091
GUAAAGCAAUAUUACGCGGC | -2.96 ± 0.21 | -0.672 ± 0.18
GUAAAGCAAUAUUACGCUAG | -1.03 ± 0.079 | -0.533 ± 0.1

Sequence | self-splicing fitness (ln) (30 °C) | self-splicing fitness (ln) (37 °C)
GUAAAGCAAUAUUACGGAAC | -1.56 ± 0.12 | -1.57 ± 0.21
GUAAAGCAAUAUUACGGAGA | -3.54 ± 0.28 | 
GUAAAGCAAUAUUACGGGAU | -1.62 ± 0.082 | -0.341 ± 0.11
GUAAAGCAAUAUUACGGGUG | -1.6 ± 0.065 | -0.848 ± 0.091
GUAAAGCAAUAUUACGGUCC | -1.23 ± 0.21 | -0.634 ± 0.25
GUAAAGCAAUAUUACGGUGC | -2.22 ± 0.083 | -0.36 ± 0.083
GUAAAGCAAUAUUACGGUUC | -0.687 ± 0.097 | -0.679 ± 0.13
GUAAAGCAAUAUUACGUAAA | -2.08 ± 0.1 | -0.853 ± 0.11
GUAAAGCAAUAUUACGUACC | -3.89 ± 0.2 | -2.55 ± 0.2
GUAAAGCAAUAUUACGUACU | -1.01 ± 0.076 | -0.965 ± 0.13
GUAAAGCAAUAUUACGUCGG | -2.85 ± 0.12 | -1.05 ± 0.13
GUAAAGCAAUAUUACGUGGA | -2.51 ± 0.095 | -1.38 ± 0.073
GUAAAGCAAUAUUACGUUUU | -2.7 ± 0.076 | -1.9 ± 0.1
GUACAGCAAUAUUACGAACC | -1.19 ± 0.14 | -0.582 ± 0.18
GUACAGCAAUAUUACGAAUA | -3.26 ± 0.22 | -1.67 ± 0.13
GUACAGCAAUAUUACGACUU | -0.754 ± 0.059 | -0.179 ± 0.073
GUACAGCAAUAUUACGAUCC | -0.427 ± 0.14 | 0.81 ± 0.18
GUACAGCAAUAUUACGAUUG | -5.06 ± 0.25 | -2.87 ± 0.17
GUACAGCAAUAUUACGCGCC | -2.15 ± 0.21 | -1.49 ± 0.34
GUACAGCAAUAUUACGCGGA | -2.49 ± 0.21 | -0.988 ± 0.15
GUACAGCAAUAUUACGCGGU | -3.17 ± 0.15 | -2.31 ± 0.15
GUACAGCAAUAUUACGCUGU | -3.5 ± 0.16 | -3 ± 0.21
GUACAGCAAUAUUACGGAGU | -3.06 ± 0.18 | -1.88 ± 0.15
GUACAGCAAUAUUACGGAUA | -2.46 ± 0.12 | -2.36 ± 0.14

Sequence | self-splicing fitness (ln) (30 °C) | self-splicing fitness (ln) (37 °C)
GUACAGCAAUAUUACGGAUC | -0.86 ± 0.081 | -0.551 ± 0.11
GUACAGCAAUAUUACGGCGC | -0.365 ± 0.082 | -0.0882 ± 0.095
GUACAGCAAUAUUACGGGAG | -3.04 ± 0.21 | -1.92 ± 0.15
GUACAGCAAUAUUACGGGGC | -3.74 ± 0.35 | -2.77 ± 0.47
GUACAGCAAUAUUACGUCAA | -1.75 ± 0.16 | -2.38 ± 0.21
GUACAGCAAUAUUACGUCCG | -3.2 ± 0.23 | -1.74 ± 0.17
GUACAGCAAUAUUACGUCGU | -1.34 ± 0.11 | 0.338 ± 0.11
GUACAGCAAUAUUACGUGCA | -3.96 ± 0.22 | -2.17 ± 0.16
GUACAGCAAUAUUACGUGCG | -2.57 ± 0.12 | -1.21 ± 0.095
GUACAGCAAUAUUACGUGUU | -2.74 ± 0.075 | -1.54 ± 0.1
GUACAGCAAUAUUACGUUAU | -4.01 ± 0.25 | -1.87 ± 0.14
GUACAGCAAUAUUACGUUCG | -1.45 ± 0.061 | -0.316 ± 0.079
GUACAGCAAUAUUACGUUCU | -1.98 ± 0.1 | -0.102 ± 0.1
GUAGAGCAAUAUUACGACAA | 0.152 ± 0.14 | -0.0812 ± 0.17
GUAGAGCAAUAUUACGAGGC | -3.01 ± 0.19 | -2.63 ± 0.29
GUAGAGCAAUAUUACGAGGU | -1.12 ± 0.16 | -1.33 ± 0.32
GUAGAGCAAUAUUACGAUCG | -2.6 ± 0.15 | -0.951 ± 0.17
GUAGAGCAAUAUUACGAUGG | -2.34 ± 0.091 | -1.59 ± 0.11
GUAGAGCAAUAUUACGCAAA | -2.21 ± 0.16 | -1.59 ± 0.17
GUAGAGCAAUAUUACGCAAG | -0.744 ± 0.22 | -1.49 ± 0.27
GUAGAGCAAUAUUACGCACU | -1.24 ± 0.25 | 0.332 ± 0.23
GUAGAGCAAUAUUACGCAGA |  | -1.92 ± 0.32
GUAGAGCAAUAUUACGCCUU | -0.0606 ± 0.13 | 0.0599 ± 0.17
GUAGAGCAAUAUUACGCGGG | -2.65 ± 0.15 | -1.43 ± 0.17

Sequence | self-splicing fitness (ln) (30 °C) | self-splicing fitness (ln) (37 °C)
GUAGAGCAAUAUUACGCUCG | -1.59 ± 0.13 | -0.12 ± 0.16
GUAGAGCAAUAUUACGGACA | -0.864 ± 0.17 | -1.72 ± 0.27
GUAGAGCAAUAUUACGGACC | -1.22 ± 0.14 | 0.305 ± 0.2
GUAGAGCAAUAUUACGGAGC | -0.91 ± 0.14 | -0.327 ± 0.2
GUAGAGCAAUAUUACGGAUC | -0.404 ± 0.1 | -0.0325 ± 0.14
GUAGAGCAAUAUUACGGCUA | -0.487 ± 0.11 | 0.641 ± 0.16
GUAGAGCAAUAUUACGGUCC | -1.01 ± 0.17 | -0.565 ± 0.28
GUAGAGCAAUAUUACGGUGG | -3.39 ± 0.45 | -0.894 ± 0.23
GUAGAGCAAUAUUACGUCGC | -0.635 ± 0.15 | -0.21 ± 0.18
GUAGAGCAAUAUUACGUGCU |  | -1.29 ± 0.39
GUAGAGCAAUAUUACGUGGC | -1.52 ± 0.17 | -1.29 ± 0.27
GUAUAGCAAUAUUACGAACU | -1.75 ± 0.23 | 0.477 ± 0.24
GUAUAGCAAUAUUACGACCA | -0.996 ± 0.17 | -0.193 ± 0.17
GUAUAGCAAUAUUACGCGCU | -2.22 ± 0.16 | -0.818 ± 0.16
GUAUAGCAAUAUUACGCUGU | -2.81 ± 0.26 | -2.48 ± 0.3
GUAUAGCAAUAUUACGGACC | -1.89 ± 0.5 | -2.56 ± 0.3
GUAUAGCAAUAUUACGGCCG | -2.76 ± 0.21 | -1.09 ± 0.17
GUAUAGCAAUAUUACGGGAU | -3.5 ± 0.29 | -0.308 ± 0.11
GUAUAGCAAUAUUACGGGUA | -2.56 ± 0.27 | -1.28 ± 0.19
GUAUAGCAAUAUUACGGUAU | -2.73 ± 0.18 | -2.26 ± 0.19
GUAUAGCAAUAUUACGGUUG | -3.77 ± 0.3 | -1.35 ± 0.3
GUAUAGCAAUAUUACGUAGA |  | -2.07 ± 0.32
GUAUAGCAAUAUUACGUUCA | -1.06 ± 0.2 | -0.424 ± 0.23
GUCAAGCAAUAUUACGAACG | -2.06 ± 0.15 | -1.27 ± 0.15
